These results are taken from the RNAGym collection of RNA variant scans (doi:10.1073/pnas.2313332121).

First the molecules themselves.
B1: TPR 5TU (parent)
chain: GGAUCUUCUCGAUCUAACAAAAAAGACAAAUCUGCCACAAAGCUUGAGAGCAUCUUCGGAUGCAGAGGCGGCAGCCUUCGGUGGCGCGAUAGCGCCAACGUUCUCAACUAUGACACGCAAAACGCGUGCUCCGUUGAAUGGAGUUUAUCAUG

Fewer inactive variants are shown than the library holds.

In this series the parent is B1. The series is described as follows: polymerase ribozyme fitness, log enrichment relative to wild type (log ratio); higher = more active; in vitro selection for triplet polymerase activity. Put shortly:
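The heterodimeric triplet polymerase ribozyme's subunits were each mutagenized into PCR-built libraries and transcribed. Every library was selected once, in triplicate, by annealing with a biotinylated primer, the partner subunit and triplets, incubating frozen at −7 °C, gel-excising extended constructs, capturing on streptavidin beads and running RT-PCR. Input and output libraries were Illumina-sequenced, with genotypes kept only at ≥10 input reads and ≥1 read per output. Fitness, from inverse-variance-weighted replicate averages, is the base-2 logarithm of genotype enrichment over wild-type enrichment.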
As for GGAUCUUCUCGAUCGUACAAAAAAGACAAAUCUGCCACAACGCUUGAGAGCCUCUUCGGAUGCAGAGGCGGCAGCCUUCGCUUGCGCGAUAGCGCCAACGUUCUCUACUAUGACACGCAAAACGCGAGCUCCGUUGAAUGGAGUUUAUCAUG [U15G A16U A41C A52C G81C G83U A106U U127A], the “polymerase ribozyme fitness (log ratio)” value is at most -4.2.
Regarding GGAUCUUCUCGAUCGACCAAAAAAGAGAAAUCUGCCACAAAGCUUGAGAGAAUCUUCGAAUGCAGAGGCGGCAGUCUUCGGUGGCGUGAUAGCGCCAACGUUCUCAACUAUGACACGCAAAACGCGUGCUCCGUUGAAUGGAGUUUAUCAUG [U15G A17C C27G C51A G59A C75U C87U], the “polymerase ribozyme fitness (log ratio)” value was at most -4.2.
For GGAUCUUCUCGAUCGAACAAAAAAGACAAAUCUGCCACUAAGCUUGAGAGCAUCUUCGGAUGCAGAGGCGGCAGCCUUCGGGGACGCGAUAGCGCCAACGUUCUCAACUAUUACACGCAAAACGCGUGCUCCGUUGAAUGGAGUUUAUCAUG [U15G A39U U82G G84A G112U] the value was at most -4.2; for GGAUCUUCUCGAUCCAACAAAAAAGACAAAUCUGCCACAAAGCUUGAGAGCAUCUUCGGAUGCAGAGGCGGCAGCCUUCGGUGCCGCGAUAGCGCCAACGUUCUCAACUAUGACACGCAAAACGUGUGCUCCGGUGAAUGGAGUUUAUCUUG [U15C G84C C125U U134G A150U], at most -4.2.
For GGAUCUUCUCGAUCGAACAAAAAAGACGUAUCUGCGACAGAGCUUGAGAGCAUCUUCGGAUGCAGAGGCGGCAGCCUUCGGUGGCGCGAUAGCUCCAACGUCCUCAACUAUGACACGCAAAGCGCGUGCUCCGUUGAAGGGAGUUUAUCAUG [U15G A28G A29U C36G A40G G94U U102C A122G U139G], the “polymerase ribozyme fitness (log ratio)” value was at most -4.2.
For GGAUCUUCUCGAUCGAACAAAAAAGACUAAUCUGCCACAAAGCUUCAGAGCAUCUUUGGAUGCAGAGGCGGCAGCCUUCGGUGGAUCGAAAGCGUCAACGUUCUUAACUAUGACACGCAAAACGCGUGCUCCGUUGAAUGGAGUUUAUCAUG [U15G A28U G46C C57U C85A G86U U90A C95U C105U] the value was at most -4.2.
Regarding GGAUCUUCUCGAUCGAACUAAAAAGACAAAUCUGCCACAAAGCUUGAGAGCAUCUUCGGAUGCAGAGGCGGCAGCCUUCGGUGGCGCGAUUGCGCCAACGUUCUCAACUAUGACACGCAAAACGCGUGCUCCGUUGAAUGGAGUUUAUCAUG [U15G A19U A91U], the “polymerase ribozyme fitness (log ratio)” value is -3.99.
For GGAUCUUCUCGAUCCAACAAAAAAGACAAAUCUGCCACAAAGCUUGAGAGCAUCUUCGGAUGCAGAGGCGGCAGCCUUCGGUGUCGCGAUAGCGCCAACGUUCUCAACUAUGACACGCAAAACGCGUGCUCCGUUGAAUGGAGUUUAUCAUG [U15C G84U] the value was -0.83; for GGAUCUUCUCGAUCGAACAAAAAAGACAAAUCUGCCACUAAGCUUGAGAGCAUCUUCGGAUGCAGAGGCGGUAGCCUUCGGUGGCGCGAUUGCGCCAACGUUCUCAACUAUGACACGCAAAACGCGUGCUCCGUUGAAUGGAGUUUUUCCUG [U15G A39U C72U A91U A147U A150C], at most -4.2.
Under GGAUCUUCUCGAUCGAACAAAAAAGACAAAUCUGCCACGAAGCUUGAGAGCAACUUCGGAUGCAGAGGCGGCAGCCUUCGGUGGCGCGAUAGCGCCAACGUUCUCAACUAUGACACGCAAAACGCGUGCUCCGUUGAAUGGAGUUUAUCAUG [U15G A39G U53A] stands -4.01; under GGAUCUUCUCGAUCGAACAAAAAAGACGAAUCUGCCACAAAGCUUGAGAGCAUCUUCGGAUGCAGAGGCGGCAGCCUUAGGUGGCGCGAUAGCGCCAACGUUCUCAACUAUGACACGCAAAACUCGUGCUCCGUUGAAUGGAGUUUAUCAUG [U15G A28G C79A G124U], at most -4.2.
For GGAUCUUCUCGAUCGAACAAUAAAGACAAAUCUGCCACGAAGCUUGGGAGCAUCUUCGGAUGCAGAGGCGGCAGCCUUCGGUAGCGCGAUAGCGCCAACGUUCUCAACUAUGACACGCAAAACGCGUGCUCCGUUGAAUGGGGUUUAUCAUG [U15G A21U A39G A47G G83A A142G] the value was -3.92; for GGAUCUUCUCGAUCGAACAAAAAAGUCAAAUCUGCCACAAAGCUUGAGAGCGUCUUCGGAUGCAGAGGCGGCAGCCUUCGGUAGCGCGAUAGCGCCAACGUGCUCAACUAUGACACGCAAAACGCGUGCUCCGUUGAAUGGAGUUUAUCAUG [U15G A26U A52G G83A U102G], at most -4.2.
Turning to GGAUCUUCUCGAUCGAACAAAUAAGACAAAUCUGCCACAAAGCUUGAGAGCAACUUCGGAUGCAGAGGCGGCAGCCUUCGGUGGCGCGAUAGCGCCAACGUUCUCAACUAUGACACGCAACACGCGUGCUCCGUUGAAUGGAGUUUCUCAUG [U15G A22U U53A A121C A147C], the “polymerase ribozyme fitness (log ratio)” value amounted to 0.0126.
For GGAUCUUCUCGAUCGAGCAAAAAAGACAAAUCUGCCAAAAAGCUUGAGAGCAUCUUCGGAUCCAGAGGCGGCAGCCUUCGAUGGGGCGAUAGCGCCAACGUUCUCAACUAUGACACGCAAAACGCGUGCUCCGUUGAAUGGAGUUUAUCAUG [U15G A17G C38A G62C G81A C85G] the value was at most -4.2.
For GGAUCUUCUCGAUCGAACAAAAAAGACAAAUCUGCCACAAAGCUUGAGAGCAUCUUCGGAUGCAGAGGCGGCAGCCUUCGGUGGCGCGAUAGCGCCAACGUUCUCAACUAUGACACGCAAAACGCGUGCUCCGUUGAAUGGAGUUUAUCAUG [U15G], the “polymerase ribozyme fitness (log ratio)” value is -0.334.
Consider GGAUCUUCUCGAUCCAACAAAAAAGACAAAUCUGCCACAAAGCUUGAGAGCAUCUUCGGAUGCAGAGGCGGCAGCCUUCCGUGGCGCGAUAGGGCCAACGUUCUCAACUAUGACAGGCAAAACGCGUGCUCCGUUGAAUGGAGUUUAUCAUG [U15C G80C C93G C116G], for which the “polymerase ribozyme fitness (log ratio)” value is -4.05.
GGAUCUUCUCGAUCGAACAUAAAAGACAAAUCUGCCGCAAAGCUAGAGACCAUCUUCGGAUGCAGAGGCUGCAGCCUUCGGUGGCGCGAUAGCGUCAACGUUCUCAACUAUGACACGGAAAACGCGUGCUCCGUUGAAUGCAGUUUCUCAUA [U15G A20U A37G U45A G50C G70U C95U C118G G141C A147C G152A]: the “polymerase ribozyme fitness (log ratio)” value was at most -4.2.
Under GGAUCUUCUCGAUCGAACAUAAAAUACAAAUCUGCCACAAAGCUUGAGAGCAUCUUCGGAUGCAGAGGCGGCAGCCUUCGGUGGCGUGAUAGCGCCAACGUUGGCAACUAUGACACGCAAGACGCUUGCUCCGCUGAAUGGAGUUUAUAAUG [U15G A20U G25U C87U C103G U104G A121G G126U U134C C149A] stands at most -4.2.
